This passage reports enrichment results from publication PMC10244618.

Values joined by “and” are separate entries in the source; they are usually repeats but may differ in a detail not shown here. Equal values may be shown once.

B1: NF2 (merlin) isoform 7, human, full length (507 aa, lacks exons 2-3 = isoform-1 residues 39-121; exon-16 C-terminus), P35240-4 (parent)
chain: MAGAIASRMSFSSLKRKQPKTFTVRIVTMDAEMEFNCEVKKQILDEKIYCPPEASVLLASYAVQAKYGDYDPSVHKRGFLAQEELLPKRVINLYQMTPEMWEERITAWYAEHRGRARDEAEMEYLKIAQDLEMYGVNYFAIRNKKGTELLLGVDALGLHIYDPENRLTPKISFPWNEIRNISYSDKEFTIKPLDKKIDVFKFNSSKLRVNKLILQLCIGNHDLFMRRRKADSLEVQQMKAQAREEKARKQMERQRLAREKQMREEAERTRDELERRLLQMKEEATMANEALMRSEETADLLAEKAQITEEEAKLLAQKAAEAEQEMQRIKATAIRTEEEKRLMEQKVLEAEVLALKMAEESERRAKEADQLKQDLQEAREAERRAKQKLLEIATKPTYPPMNPIPAPLPPDIPSFNLIGDSLSFDFKDTDMKRLSMEIEKEKVEYMEKSKHLQEQLNELKTEIEALKLKERETALDILHNENSDRGGSSKHNTIKKPQAQGRRPICI

In this test the parent is B1. As to the kind of experiment: reverse yeast two-hybrid deep mutational scan (rY2H-seq): NF2 isoform 7 mutant library as bait mated with wild-type prey strains; selection on medium lacking adenine for non-interacting pairs; NextSeq paired-end sequencing; enrichment vs …. The settings on record: yeast diploids after mating (RBait_S3 x RPrey_S3), 30 °C, selection for reporter genes on NB agar, HIGHER = WEAKER BINDING (the opposite of display enrichments): higher = stronger loss of interaction: reverse Y2H selects yeast in which bait and prey do NOT interact (growth without adenine), so a …, hits-only table, scale: rY2H score, numbering: uniprot, sequence starts at 1.

The mark [1] stands for this setting: with EMILIN1 (elastin microfibril interfacer 1), Q9Y6C2, human ABL2 co-expressed as the kinase-dead K35M mutant ….
Setting [2] is: with EMILIN1 (elastin microfibril interfacer 1), Q9Y6C2, human tyrosine kinase ABL2 co-expressed as the active kinase ….
[3] abbreviates: with KDM1A (lysine-specific histone demethylase 1A; the table's label AOF2 is a gene synonym of KDM1A), O60341, human ABL2 co-expressed as the kinase-dead K35M mutant ….
Where [4] appears, read: with KDM1A (lysine-specific histone demethylase 1A; the table's label AOF2 is a gene synonym of KDM1A), O60341, human tyrosine kinase ABL2 co-expressed as the active kinase ….
The mark [5] stands for this setting: with NF2 C-terminal domain (wild type; homomeric NF2-NF2 interaction), P35240, human ABL2 co-expressed as the kinase-dead K35M mutant …, partner unresolved.
Setting [6] is: with PIK3R3 (phosphatidylinositol 3-kinase regulatory subunit gamma), Q92569, human tyrosine kinase ABL2 co-expressed as the active kinase ….

Take C217Y: the enrichment by setting is: under setting [1], 2.4; under setting [2], 1.59; under setting [3], 2.94.
Consider G219E, for which the enrichment under setting [1] is 1.55.
K211I: the enrichment was 3.12 under setting [1]; 3.16 under setting [2]; 5.27 under setting [3]; 2.6 under setting [4]; 2.67 under setting [5]; 2.81 and 3.72 under setting [6].
Regarding G146L, the enrichment is, setting by setting: under setting [1], 2.08; under setting [2], 6.29.
Q261L: the enrichment under setting [1] was 4.37.
For Y161K, the enrichment runs as follows: under setting [1], 4.91; under setting [3], 3.06; under setting [4], 8.45; under setting [6], 5.71.
In the case of Y161L, the enrichment runs as follows: under setting [1], 3.35 and 1.58; under setting [3], 2.08; under setting [6], 2.22.
As to Y161A, the enrichment came to 2.53 under setting [1]; 2.63 under setting [2]; 2.23 under setting [4]; 2.34 under setting [5]; 2.72 under setting [6].
As to Y161W, the enrichment under setting [1] is 3.13 and 2.01; the enrichment under setting [2] turned out to be 6.81; the enrichment under setting [6] was 5.85.
As to L151K, the enrichment under setting [1] amounted to 3.05.
Consider L151R, for which the enrichment runs as follows: under setting [1], 3.32 and 4.31; under setting [2], 6.23 and 2.68; under setting [3], 3.69.
Turning to L151S, the enrichment amounted to 3.66 under setting [1], 7.87 under setting [3], 6.8 under setting [4] and 12.3 under setting [5].
For the variant R25L, the enrichment runs as follows: under setting [1], 3.54; under setting [3], 4.09; under setting [4], 7.07.
As for N176L, the enrichment is, setting by setting: under setting [1], 7.14; under setting [2], 1.82; under setting [5], 10.6; under setting [6], 1.81.
Regarding L156P, the enrichment under setting [1] stood at 2.26; the enrichment under setting [3] is 3.08 and 3.61; the enrichment under setting [4] was 1.95; the enrichment under setting [5] was 3.25 and 1.98.
Consider T97I, for which the enrichment under setting [1] was 1.62 and the enrichment under setting [4] is 1.95.
Take P52E: under setting [1], the enrichment came to 9.88.
As to S172P, the enrichment runs as follows: under setting [1], 1.73; under setting [3], 1.94; under setting [6], 2.04 and 2.73.
In the case of L214E, the enrichment was 8.22 under setting [1]; 5.18 and 15.2 under setting [2]; 13.4 under setting [3]; 2.48 under setting [5]; 30 under setting [6].
In the case of K246A, under setting [1], the enrichment stood at 2.24.
Turning to K246R, the enrichment under setting [1] amounted to 1.4 and the enrichment under setting [2] came to 1.64.
For K246L, the enrichment under setting [1] is 3.03 and 1.45.
In the case of A240S, the enrichment was 2.4 under setting [1] and 1.71 under setting [4].
R115C: the enrichment reads like this: under setting [1], 2.2; under setting [3], 3.51 and 3.33; under setting [4], 3.91; under setting [6], 1.62.
Take P174T: the enrichment reads like this: under setting [1], 2.95; under setting [3], 1.5 and 1.57 and 1.64; under setting [6], 2.16 and 1.7.
Consider E259T, for which the enrichment reads like this: under setting [1], 17.4 and 9.29; under setting [2], 19.6; under setting [3], 38.4; under setting [5], 4.23.
For E259V, the enrichment was 2.5 under setting [1]; 1.65 under setting [2]; 2.8 under setting [3]; 2.08 under setting [4]; 2.03 under setting [5]; 4.06 and 2.02 under setting [6].
As for E259L, the enrichment is, setting by setting: under setting [1], 1.55; under setting [2], 1.72; under setting [3], 3.91 and 3.57.
Consider G114A, for which the enrichment runs as follows: under setting [1], 7.29; under setting [5], 2.02; under setting [6], 3.53.
For the variant R226G, under setting [1], the enrichment was 1.63.
Still for that read-out and setting: the result for D162K reads 1.74.
Turning to D162L, the enrichment came to 3.3 under setting [1], 2.41 under setting [3] and 2.21 under setting [5].
V56C: the enrichment reads like this: under setting [1], 2.08; under setting [2], 3.78 and 9.66; under setting [3], 7.69 and 9.8; under setting [4], 6.5; under setting [5], 3.78; under setting [6], 11.6 and 11.3.
Take R104E: under setting [1], the enrichment stood at 3.93.
On the same count and under the same terms, to D30A belongs 6.06.
Same read-out and setting: the result for D30L reads 3.86.
In the case of I178K, the enrichment is 6.13 under setting [1] and 2.57 under setting [5].
Take Q64A: the enrichment by setting is: under setting [1], 2.42; under setting [6], 8.91 and 12.3.
For the variant S60L, the enrichment was 2.18 under setting [1] and 2.95 under setting [3].
Take G157A: the enrichment is 6.42 under setting [1]; 5.01 under setting [4]; 2.36 and 4.41 under setting [5].
Regarding G157L, the enrichment is, setting by setting: under setting [1], 1.8 and 2.26; under setting [2], 7.41 and 6.52; under setting [3], 2.15 and 1.62; under setting [4], 10.1 and 8.48; under setting [5], 1.76.
Take K88R: the enrichment under setting [1] was determined as 1.95 and the enrichment under setting [2] turned out to be 2.74.
Regarding K170R, the enrichment is 2.58 under setting [1], 3.72 under setting [4] and 2.74 under setting [6].
On to R208C, for which, under setting [1], the enrichment was determined as 2.09.
G78A: under setting [1], the enrichment is 3.44.
Turning to R113C, the enrichment by setting is: under setting [1], 3.78 and 3.75; under setting [2], 7.86 and 3.66; under setting [3], 4.82 and 6.06; under setting [4], 4.42 and 5.11; under setting [6], 7.41.
As to L149A, the enrichment by setting is: under setting [1], 4.26; under setting [2], 2.53 and 5.08; under setting [5], 2.75 and 3.85; under setting [6], 17.7.
